From patent publication US20260201015A1 (University of Washington, published 2026)
Several values for one entry are separate records, joined by “and”; a condition that tells them apart may be missing. Identical values can stand only once. Each block holds one binder with its values, some of them ahead of it.

How the values were obtained:
[1] = biological target: T1, parathyroid hormone (PTH) peptide (UniProt P01270 32-65, limits assumed, TAMRA label in FP assays (PTH-TAMRA), site not stated; biotinylated in yeast display); experiment: fluorescence polarization, binder titrated onto labeled peptide
T1 construct: In the NanoBiT assay the peptide was genetically fused to lgBiT; also called PTH-TAMRA peptide
T1 peptide (looked up): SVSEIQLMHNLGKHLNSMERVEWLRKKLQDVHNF
Procedure: (§1) Fluorescence polarization binding assays were carried out in 96-well plates (Corning 3686), with two-fold serial dilution of designed peptide binders in the presence of 0.5 nM fluorescently labeled peptide targets. Protein and peptide were diluted from their stock concentration into 20 mM Tris-HCl pH 8, 100 mM NaCl, 0.1% v/v Tween 20, and the protein was titrated in 2-fold serial dilutions onto constant peptide. After incubating the peptide and binder for one hour at room temperature, the fluorescence polarization was measured at the excitation and emission wavelengths of the FAM dye (485/530 nm) or the TAMRA dye (530/590 nm), in a Synergy Neo2 multi-mode plate reader. Titrations were conducted in replicate, and the Kd was fitted with SciPy¹⁸. Specifically, curves were fit to N observations of an observed signal, Signalᵢ, at titrated concentrations according to the following equation: […]

[2] = biological target: T1, parathyroid hormone (PTH) peptide; experiment: FP against the NanoBiT estimate for the starting parametric binder
[3] = biological target: T2, glucagon (GCG) (UniProt P01275 53-81, fluorescently labeled (FAM or TAMRA) in FP assays, site not stated; biotinylated in yeast display); experiment: fluorescence polarization
T2 sequence (P01275 53-81 limits assumed): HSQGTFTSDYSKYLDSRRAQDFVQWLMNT
Procedure: as §1

[4] = biological target: T3, secretin (SCT) (UniProt P09683 28-54, fluorescently labeled (FAM or TAMRA) in FP assays, site not stated); experiment: fluorescence polarization
T3 peptide (looked up): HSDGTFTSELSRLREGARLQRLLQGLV
Procedure: as §1

[5] = biological target: T4, neuropeptide Y (NPY) (UniProt P01303 29-64, fluorescently labeled (FAM or TAMRA) in FP assays, site not stated; biotinylated in yeast display); experiment: fluorescence polarization titration (FIG. 6b)
Procedure: as §1

[6] = biological target: T4, neuropeptide Y (NPY); experiment: fluorescence polarization
Procedure: as §1

[7] = biological target: peptide YY (PYY) (UniProt P10082 29-64, limits assumed, fluorescently labeled (FAM or TAMRA) in FP assays, site not stated); experiment: fluorescence polarization
peptide YY (PYY), sequence (P10082 29-64 limits assumed): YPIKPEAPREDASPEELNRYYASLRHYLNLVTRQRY
Procedure: as §1

[8] = biological target: T1, parathyroid hormone (PTH) peptide; experiment: fluorescence polarization
Procedure: as §1

[9] = biological target: PTH related peptide (PTHrp) (UniProt P12272 37-70, limits assumed, fluorescently labeled (FAM or TAMRA) in FP assays, site not stated); experiment: fluorescence polarization
PTH related peptide (PTHrp), sequence (P12272 37-70 limits assumed): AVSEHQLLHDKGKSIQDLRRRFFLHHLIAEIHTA
Procedure: as §1

[10] = biological target: T5, BIM BH3 peptide (Bim) (UniProt O43521 141-166, limits assumed, fluorescently labeled (FAM or TAMRA) in FP assays, site not stated; biotinylated in yeast display); experiment: fluorescence polarization
T5 construct: domain: BH3
T5 sequence (O43521 141-166 limits assumed): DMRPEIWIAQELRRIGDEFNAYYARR
Procedure: as §1

[11] = biological target: T6, Gastric inhibitory polypeptide (GIP) (UniProt P09681 52-93, fluorescently labeled (FAM or TAMRA) in FP assays, site not stated); experiment: fluorescence polarization titration
T6 peptide (looked up): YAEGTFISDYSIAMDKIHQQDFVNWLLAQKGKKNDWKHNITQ
Procedure: as §1

[12] = biological target: T6, Gastric inhibitory polypeptide (GIP); experiment: fluorescence polarization (FIG. 7b)
Procedure: as §1

[13] = biological target: T7, Glucagon-like peptide 1 (GLP1) (UniProt P01275 98-128, fluorescently labeled (FAM or TAMRA) in FP assays, site not stated); experiment: fluorescence polarization titration
T7 peptide (looked up): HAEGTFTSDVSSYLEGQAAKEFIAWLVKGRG
Procedure: as §1

[14] = biological target: T7, Glucagon-like peptide 1 (GLP1); experiment: fluorescence polarization (FIG. 7a)
Procedure: as §1

[15] = biological target: T2, glucagon (GCG); experiment: fluorescence polarization titration (FIG. 6a)
Procedure: as §1

B3: NPY_A9 (RFjoint), inpainted NPY binder, SEQ ID NO: 4 (designed binder)
chain: GAAEKLAELYEKFKALREKALEVLKKAVEALENKADKETLLKLIKELKELAEKFEELAEEFERNAGESTTASLNATAAYMARIGLLAALLALAKAAGVPEEELEEIKRRIEETAKRAIEAAERLKALAEARGDTKHVAVGVEAVRMATELYELAQKIIDAF
Kd [5]: 3.5 µM

B8: BIM_E09 (RF Diffusion), fully diffused Bim binder, SEQ ID NO: 11 (designed binder)
chain: EEERKEKREKVRAGLKRAIAELPAEVAARCLALLDDASDEEFIEAVLEVLEAMREALVAMAREGRLDAVRRATSHINEVLVDAAELALEKGREYFRRLCLIVCDMMIELIRLEPEQTPELRRIRERLEEIRRRLE
Kd [10]: < 0.5 nM

B9: GIP_A08 (Sequence threading), SEQ ID NO: 6 (designed binder)
chain: SPKEKAERLIKEAKEAAEKAKEAAERSGLEEAKKAAEELTKLLEEAAARVAADPEDETKLRALEKIVEAAKEAVKALEVAIESGDEQLIRAALSLVEAAVHLAKALLAKPESPLVDFGFELLKLAAKTLAAYAEGEDVDKIALKLKAISAMAEALRLALAGDLERAARAAEEAVRYAIEAGDKELLRLAAEVAAYIARLAEEAGLEEVARRAREAAERAREAAK
Kd [11]: 6.96 nM
Kd [12]: < 100 nM

B10: GLP1_B04 (Sequence threading), SEQ ID NO: 7 (designed binder)
chain: SPEEEARRAAREAERAAREAREAARRLGDEESVRVAERLEREARRAERERDLELARRVLRAAEALRLALEGELLAREQGDELGVVVARMITLAARDSALGRGTPELARLLLRVARALLEGDLEEVVRSLAEIAKREIGTERALLAVEAIKLVALESIEEGDFETAELAIEKLREIAEEFEGTEVAEKAREAIEEIEKKKREAE
Kd [13]: 68.8 nM
Kd [14]: < 100 nM

B11: GCG_A04 (RFjoint), inpainted GCG binder, SEQ ID NO: 3 (designed binder)
chain: MLDELFSLLNKMFELSDKYRELRKELRKAIESGAPEEELRELLEKMLEIAKKLLELTKELKKLVEDVLKNNPDPVERAKAVLLYAVGVHILYSESSELEVIAERLGFKDIAEKAKEIADKARELKEEVKRKLREIREEVPDPEIRKAAEEAIEMLESNDKRLKEFRKL
Kd [15]: 231 nM

Continued, values first:

Kd [1]: 6.1 nM
fold improvement in affinity over the starting PTH binder [2]: ~1000 fold
B1: PTH_B10 (RFjoint), inpainted PTH binder, SEQ ID NO: 2 (designed binder)
chain: SFELLEKLIELSKELYEVAKKYIETGDPELKKKLEEILKKIEEAYKELLESDAHPLEKALAKLILAEAYVVKSFAYISSGKDLEKAQEYLDKAKEILEELLKLLEELKKEETDPEKLEIIEELEKIAEELLKEIEE
notes: Expressed in E. coli, purified on Ni-NTA and by SEC

Kd [3]: 12 nM
fold selectivity for SCT over GCG [3]: 4 fold
Kd [4]: 3.95 nM and 2.7 nM
B2: SCT_A02 (Sequence threading), threaded SCT binder, SEQ ID NO: 5 (designed binder)
chain: SEELEERLREARERLEEARERLEEAREEGDLREMARALLEEARAVLEIARVAAEAGDDEALREAARRAGEVIRRAGEVGLRAAEEGDTETIREAMLAILEAQRASAVIALHLARDDPEVAEALRVIERLLRTAERALREGQLEVARLATEAVEALADAILRAREIGRPELVREAARLAEEARRLLEAALEALRAGDEEGARERLARARELIREIRERVRRA
notes: also called SCT design

Kd [6]: 5.29 nM and 5.6 nM
binding result [7]: no binding
B4: NPY_C5 (RF Diffusion/Partial diffusion), partially diffused NPY binder, SEQ ID NO: 9 (designed binder)
chain: GMEERRKELLEKLKKLKEEVVELFRELAQALRDGASKERLEEIRERAEKLAEEAKKVAEELEKLAEGDAVLQLYLAEAYALEAAALTIEAVAAAELGASKEELEKIKEKIEEALKKAEEAMKKALAEAKARGRERLVRLIEEARKEFEKLSKAIKELLEQV

binding result [3]: binds
fold weaker binding to SCT than to GCG [4]: 10 fold
B5: GCG_C09 (RF Diffusion/Partial diffusion), partially diffused GCG binder, SEQ ID NO: 8 (designed binder)
chain: SMEKLAEIMQEIIEAYQEVKDAFFKFIKAVHEGAPEEELKKYLEKMKEALEKMKELLERLEKEAKKVIEENKDKKLELKVLLMLRLAYLLLKVSIELTKIAAEKLGDKELVEELEKESKEVEKKIKELEERIKKLLEEVDDEELKEAYKEVEEMEKEAEKFLEKMRKV

Kd [7]: 24.5 nM
B6: PPY_A04 (RF Diffusion_flex), flexibly diffused PYY binder, SEQ ID NO: 12 (designed binder)
chain: GLEEAEKLLEEIFANFEEIVELIKKNIGTERGKKLLKVFVATVDLILARLEQGADLAELAELVKEIAELAKDEEGLEEAEKLVKELTAAR

Kd [8]: < 0.5 nM
binding result [9]: no binding
B7: PTH_D08, fully diffused PTH binder (RF Diffusion), SEQ ID NO: 10 (designed binder)
chain: MREKLEEMLEEFNEVIDELIEITKEDAPELEELRERAEEAVENERLDELEEILDELEVIILEAMFRDLSAAIEMTKAKNDKEKLKELLKQLEELEKRIKELLERAKKRGNKKIIEKLEKLLKEVEKLKKEIEEYLK
